The values that follow come from paper PMC4852379.

The target in assay [1] is antibody 5J8, FA variant (Q295F/Y296A), EAS-stabilized (human). Description: BLI. In general terms: Biolayer interferometry detects binding as a change in optical thickness at a sensor tip.
The target of assay [2] is antibody 5J8, wild type (human IgG1 monoclonal antibody) (human). As to the kind of experiment: BLI.

For orientation: Kd means the concentration at which binding is half-saturated. Read a low Kd as a tighter complex. As for “Fc gamma receptor IIIa (FcγRIIIa), recombinant (from UniProt P08637 17-208)”, the Kd in assay [1] was found to be 1000 nM.
Take “Fc gamma receptor IIa (FcγRIIa), recombinant (from UniProt P12318 34-217)”: the Kd in assay [2] stood at 270 nM.
